Measurements taken from article doi:10.1101/2022.10.27.514150.

Target: Gluc1-ΔN(1–433)
Assay: split reporter

Sequence of Gluc2-E2F4 FL (Q16254 whole entry): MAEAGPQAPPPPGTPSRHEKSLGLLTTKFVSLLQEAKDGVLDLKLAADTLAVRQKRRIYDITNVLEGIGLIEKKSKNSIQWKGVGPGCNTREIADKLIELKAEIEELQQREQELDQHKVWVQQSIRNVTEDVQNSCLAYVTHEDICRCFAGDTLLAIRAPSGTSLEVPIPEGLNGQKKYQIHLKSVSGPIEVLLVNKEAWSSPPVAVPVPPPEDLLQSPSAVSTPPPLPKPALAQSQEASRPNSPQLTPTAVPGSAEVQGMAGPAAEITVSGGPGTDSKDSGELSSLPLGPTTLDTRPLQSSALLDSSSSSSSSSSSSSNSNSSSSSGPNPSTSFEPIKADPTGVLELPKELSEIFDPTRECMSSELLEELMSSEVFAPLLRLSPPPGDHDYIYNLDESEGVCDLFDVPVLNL

normalized luminescence ratio (NLR): > 20
Substance: Gluc2-E2F4 FL (from UniProt Q16254 1-413) (natural protein)
